What all share (test): cryo-EM structure
The target in test [1] is φEL chaperonin (gene product 146 of Pseudomonas phage EL) (Pseudomonas phage EL).
The target is the same in test [2]. The source holds these as a separate data set.
For test [3] the target is unchanged. This is another data set of the same source.

Where two headings read alike, the source gives them in different places.

As usually defined, the stoichiometry N is the number of molecules, sites or subunits per partner or assembly. Consider “φEL chaperonin (gene product 146 of Pseudomonas phage EL) (natural protein)”, for which the stoichiometry N in test [1] is 14; in test [2], 7; in test [3], 14.

(Values after publication PMC4823152.)
